Target: MGF505-4R fused to NanoLuciferase fragment N1 (pDEST-N2H-N1) (African swine fever virus, Georgia 2007/1 strain)
Assay: split reporter (BiFC, NanoBiT)

swine TRAF3 fused to NanoLuciferase fragment N2 (pDEST-N2H-N2) (natural protein)
luminescence score (fold increase over N1-MGF505-4R with empty N2 vector): 8.5 fold

Source: paper PMC10961335
